Measurements as given in US20250145697A1 (WASHINGTON UNIVERSITY, published 2025).

Key:
[1] = target: T1, recombinant alipidated human ApoE4 (human, UniProt P02649 19-317); test: SPR, biotinylated recombinant apoE4 captured on a streptavidin chip; column Ka (1/Ms)
T1 construct: mature; full length recombinant protein made in E. coli or bought; biotinylated for SPR; position 112 is counted on the mature protein, not on the precursor entry; also called recApoE; non-lipidated ApoE4
Description: (§1) ELISA plates were coated with 0.5 μg/ml of recombinant apoE2 (square), apoE3 (open circle), or apoE4 (closed circle). Then different concentrations of (A) HJ151, (B) HJ153, (C) HJ154, or (D) HJ156 were loaded on the plates. Horse-radish peroxidase labeled goat anti-mouse secondary antibodies were used to detect binding. […] HJ151 is specific for ApoE4 and HJ156 binds only ApoE3 and ApoE4. FIG. 5E-H are graphs depicting surface plasmon resonance profiles for various antibodies. Anti-ApoE antibodies were serially diluted 3-fold (starting at 100 nM for HJ153 (E), and 1000 nM for HJ151 (F), and […] (G)) for detection of binding to biotinylated-recombinant apoE4 captured on a streptavidin chip. Samples were injected at a flow rate of 30 μl/minute. (H) Apparent KD values of HJ151, HJ153 and HJ156 were calculated based on the SPR experiment.
(§2) ELISA plates were coated with 0.5 μg/ml of recombinant apoE2, apoE3, or apoE4. Then different concentrations of HJ151 (FIG. 5A), HJ153 (FIG. 5B), HJ154 (FIG. 5C), or HJ156 (FIG. 5D) were loaded on the plates. Horse-radish peroxidase labeled goat anti-mouse secondary antibodies were used to detect binding. […] HJ151 is specific for ApoE4 and HJ156 binds only ApoE3 and ApoE4. Surface plasmon resonance profiles for various antibodies was also performed.

[2] = target: T2, heat-induced aggregates of ApoE4 (human, UniProt P02649 19-317); test: ELISA: ApoE4 incubated at 40 C for 24 hr on the plate, antibody titrated, OD650
T2 construct: mature; aggregated state of the recombinant protein; also called ApoE4 incubated at 40 C for 24 hr; heat-treated ApoE4
T2 sequence (P02649 19-317 C130R): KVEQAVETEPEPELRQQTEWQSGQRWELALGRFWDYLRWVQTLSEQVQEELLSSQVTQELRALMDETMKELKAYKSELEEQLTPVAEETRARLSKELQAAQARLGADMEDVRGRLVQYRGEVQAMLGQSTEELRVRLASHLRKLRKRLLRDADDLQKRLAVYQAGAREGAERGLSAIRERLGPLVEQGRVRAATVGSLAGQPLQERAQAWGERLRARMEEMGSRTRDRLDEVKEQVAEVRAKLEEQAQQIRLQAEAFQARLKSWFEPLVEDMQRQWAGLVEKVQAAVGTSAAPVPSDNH
Description: (§3) 1: untreated ApoE4. 2: ApoE4 that has been incubated at 40° C. for 24 hr. Supernatant(S) and pellet (P) from ultracentrifugation were resolved on SDS-PAGE and stained by Coomassie blue. (D) Binding of HJ156 to different preparations of ApoE4 loaded at the same concentration on the ELISA plate. Sup of untreated: Supernatant fraction of untreated ApoE4 from ultracentrifugation. Sup/Pel of 24h 40C: Supernatant/pellet fraction of ApoE4 incubated at 40° C. for 24 hour. (E) Binding of HJ156 to untreated and 40° C. incubated ApoE4 with and without denaturation by 1% SDS or 4M guanidine HCl.
(§4) In order to test whether HJ151 and HJ156 bind to some form of ApoE in the brain, unfixed frozen brain sections from APPPS1/APOE4 or APPPS1/EKO mice using HJ151 and HJ156 (FIG. 38A). The presence of Aβ plaques was confirmed with Aβ immunostaining using anti-Aβ antibody HJ3.4 on the sections from the same brain. […] Next, the ability of HJ156 to bind to an aggregated form of ApoE induced by incubation at 40° C. was queried. The binding of untreated ApoE to HJ151, HJ153 or HJ156 was compared to the binding of ApoE incubated at 40° C. to HJ151, HJ153 or HJ156. HJ153 bound to untreated ApoE or ApoE incubated at 40° C. similarly while HJ151 and HJ156 preferentially bound to ApoE incubated at 40° C. (FIG. 38B). […] Solubilization of the ApoE aggregates reduced their binding to HJ156. […]

murine ApoE = target: T3, murine ApoE (mouse, UniProt P08226 19-311); test: Western blot of mouse brain lysates
T3 sequence (looked up): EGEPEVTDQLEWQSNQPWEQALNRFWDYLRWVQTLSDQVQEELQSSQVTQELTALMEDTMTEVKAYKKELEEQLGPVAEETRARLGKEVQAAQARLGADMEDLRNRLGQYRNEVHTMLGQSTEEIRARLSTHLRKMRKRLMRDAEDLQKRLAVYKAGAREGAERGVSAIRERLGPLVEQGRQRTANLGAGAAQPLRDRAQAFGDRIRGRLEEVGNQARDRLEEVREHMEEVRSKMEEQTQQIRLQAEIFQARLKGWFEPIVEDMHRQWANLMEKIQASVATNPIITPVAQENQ
Description: Brain lysates from apoE KO mice or mice expressing human apoE3, human apoE4 or murine apoE were immunoblotted with HJ151, HJ152, HJ153, and HJ154. A commercial apoE antibody GA-50 was used as a positive control.

[3] = target: T1, recombinant alipidated human ApoE4; test: SPR (Biacore T200), biotinylated ApoE4 captured on anti-biotin mAb chip, antibody injected, 1:1 fit
Description: The affinity of several anti-ApoE antibodies for ApoE4 was determined by surface plasmon resonance using a BIAcore T200. Anti-biotin monoclonal mouse antibody was immobilized on a Biacore Series S CM5 sensor chip. Biotinylated recombinant alipidated ApoE4 was then captured on to the chip. Serial dilutions of each antibody were injected at a flow rate of 30 μl/min. Each sample was analyzed, for example, with 3-minute association and 10-minute dissociation. After each injection the chip was regenerated using 3 M MgCl₂ or another appropriate buffer. Binding response was corrected by subtracting the response units (RUs) from a flow cell capturing an irrelevant IgG at similar density. A 1:1 Languir model of simultaneous fitting of Kₒₙ and Koff was used for kinetics analysis. Recombinant alipidated ApoE4 was either expressed in soluble form in E. coli and then purified, or purchased from a commercial supplier.

[4] = target: T1, recombinant alipidated human ApoE4; test: SPR, biotinylated recombinant apoE4 captured on a streptavidin chip; column Kd (1/s)
Description: as §1, §2

[5] = target: T1, recombinant alipidated human ApoE4; test: SPR, biotinylated recombinant apoE4 captured on a streptavidin chip; column Apparent KD (M)
Description: as §1, §2

[6] = target: T4, recombinant alipidated human ApoE3 (human, UniProt P02649 19-317); test: direct ELISA on coated recombinant alipidated ApoE (0.5 ug/ml)
T4 construct: mature; full length recombinant protein made in E. coli or bought
T4 sequence (P02649 19-317): as the sequence (P02649 19-317 C130R) above, with R112C counted along it
Description: (§5) ELISA dose response curves were generated for several anti-ApoE antibodies. Briefly, plates were coated overnight with full length recombinant alipidated ApoE2, ApoE3, or ApoE4 (0.5 μg/ml). The following days, plates were washed, blocked and then incubated with an anti-ApoE antibody. A goat, anti-mouse IgG-HRP antibody was used for secondary detection. Recombinant alipidated ApoE was either expressed solubly in E. coli and then purified, or purchased from a commercial supplier.

[7] = target: T1, recombinant alipidated human ApoE4; test: as above
Description: as §5

[8] = target: T5, recombinant alipidated human ApoE2 (human, UniProt P02649 19-317); test: as above
T5 construct: mature; full length recombinant protein made in E. coli or bought
T5 sequence (P02649 19-317 R176C): as the sequence (P02649 19-317 C130R) above, with R112C, R158C counted along it
Description: as §5

[9] = target: T1, recombinant alipidated human ApoE4; test: ELISA: untreated recombinant ApoE4 on the plate, antibody titrated, OD650
Description: as §3, §4

T1 sequence (P02649 19-317 C130R): as the sequence (P02649 19-317 C130R) above

kon [1]: 662000 M⁻¹ s⁻¹
EC50 (read off the curve) [2]: ~0.2 nM
binding result (murine ApoE): no binding
Kd [3]: 0.43 nM
koff [3]: 0.000346 s⁻¹
kon [3]: 804000 M⁻¹ s⁻¹
koff [4]: 0.000211 s⁻¹
Kd [5]: 0.319 nM
EC50 [6]: 0.02 nM
EC50 [7]: 0.03 nM
EC50 [8]: 0.02 nM
EC50 (read off the curve) [9]: ~0.3 nM
B1: HJ153 (antibody, V domains shown)
VH: QVQLQQPGAELVKPGASVKLSCKASGYTFTSYWMHWVKQRPGRGLEWIGEIDPSDGFTYNNQNFKDKSTLTVDRSSGTAYLQLSSLTSEDSAVYYCAGSLGRIGLAYWGHGTLVTVSA
VL: QIVLTQSPAIMSASPGEKVTISCSASSSVTYMYWYQQKPGASPKSWIYRTSNLASGVPARFSGSGSGTSYSLTISSMEAEDAATYYCQQFQSYPLTFGAGTKLELKR
notes: murine monoclonal antibody from hybridoma; also called HJ153B (biotinylated)
